Where a chain is given by its changes, count along the chain named. Names may count otherwise.
B1: CH103-S14P (antibody, V domains shown)
V domain 1: QVQLQESGPGVVKPSETLSLTCTVSGGSMGGTYWSWLRLSPGKGLEWIGYIFHTGETNYSPSLKGRVSISVDTSEDQFSLRLRSVTAADTAVYFCASLPRGQLVNAYFRNWGRGSLVSVTA
V domain 2: YELTQPPSVSVSPGQTATITCSGASTNVCWYQVKPGQSPEVVIFENYKRPSGIPDRFSGSKSGSTATLTIRGTQAIDEADYYCQVWDSFSTFVFGSGTQVTVL
B2: CH103-S14P/G30S (antibody, V domains shown)
V domain 1: B1 V domain 1 with G30S
V domain 2: B1 V domain 2
B3: CH103 UCA (antibody, V domains shown)
VH: QVQLQESGPGLVKPSETLSLTCTVSGGSISSYYWSWIRQPPGKGLEWIGYIYYSGSTNYNPSLKSRVTISVDTSKNQFSLKLSSVTAADTAVYYCASLPRGQLVNAYFDYWGQGTLVTVSS
VL: not shown
notes: also called unmutated common ancestor of the CH103 lineage
B4: CH103 UCA-P14S (antibody, V domains shown)
VH: B3 VH with P14S
VL: not shown
B5: CH103 UCA-S30G/S31G (antibody, V domains shown)
VH: B3 VH with S30G, S31G
VL: not shown
B6: UCA-S30G/S31G (antibody, V domains shown)
VH: B3 VH with S30G, S31G
VL: not shown
B7: CH103 UCA-S30G (antibody, V domains shown)
VH: B3 VH with S30G
VL: not shown
B8: CH103 UCA (antibody, V domains shown)
VH: B3 VH
VL: not shown
notes: also called unmutated common ancestor of the CH103 lineage; wild-type UCA
B9: UCA-S30G (antibody, V domains shown)
VH: B3 VH with S30G
VL: not shown
B10: UCA-P14S (antibody, V domains shown)
VH: B3 VH with P14S
VL: not shown
B11: CH103 lineage intermediate I3 (antibody, V domains shown)
VH: QVQLQESGPGLVKSSETLSLTCTVSGGSMGGYYWSWLRQSPVKGLEWIGYIFHTGHTNYNPSLESRVTVSVDTSENQFSLRLRSVTAADTAVYYCASLPRGQLVNAFFDNWGQGTLVTVAS
VL: not shown
B12: I3 (CH103 lineage intermediate) (antibody, V domains shown)
VH: B11 VH
VL: not shown

Tests used:
Details in all cases: both partners purified
C.CH505TF gp120 [1] = molecular target: T1, C.CH505TF gp120 (HIV-1 clade C, CH505 transmitted/founder, UniProt M4M0W3, strain); assay: SPR
C.CH505TF gp120 [2] = molecular target: T2, C.CH505TF gp120 (HIV-1 clade C, CH505 transmitted/founder, UniProt M4M0W3, strain); assay: SPR; BIAcore T200; […]) 5 min at 50 µL/min, 10 min dissociation; […]; global 1:1 Langmuir fit; […]
C.CH505TF gp120 [3] = molecular target: T2, C.CH505TF gp120; assay: as above; remark: listed apart in the source
C.CH505TF gp120 [4] = molecular target: T1, C.CH505TF gp120; assay: SPR; remark: listed apart in the source

| Binder | koff (C.CH505TF gp120 [1]) | kon (C.CH505TF gp120 [1]) | Kd (C.CH505TF gp120 [2]) | also measured |
| --- | --- | --- | --- | --- |
| B1 | 0.000262 s⁻¹ | 5200 M⁻¹ s⁻¹ | – | Kd (C.CH505TF gp120 [1]): 50 nM |
| B2 | 0.0003 s⁻¹ | 4000 M⁻¹ s⁻¹ | – | Kd (C.CH505TF gp120 [1]): 70 nM |
| B3 | – | 23500 M⁻¹ s⁻¹ | – | – |
| B4 | 0.0112 s⁻¹ | 30000 M⁻¹ s⁻¹ | – | – |
| B5 | 0.011 s⁻¹ | 25200 M⁻¹ s⁻¹ | – | – |
| B6 | – | – | 440 nM | – |
| B7 | 0.0117 s⁻¹ | 29600 M⁻¹ s⁻¹ | – | – |
| B8 | – | – | 430 nM | koff (C.CH505TF gp120 [3]): 0.0101 s⁻¹; kon (C.CH505TF gp120 [3]): > 10000 M⁻¹ s⁻¹ |
| B9 | – | – | 400 nM | – |
| B10 | – | – | 370 nM | – |
| B11 | – | – | – | koff (C.CH505TF gp120 [4]): 0.000234 s⁻¹; kon (C.CH505TF gp120 [4]): 24500 M⁻¹ s⁻¹ |
| B12 | – | – | 9.53 nM | – |
